Data as given in US20030186920A1.
Blank lines part the entries; values can stand above or below the molecule they belong to.

Legend:
Test in all cases: cell-based or functional assay
[1] = target: T1, bovine Flt-1 (VEGFR-1), endogenous on bovine aortic endothelial cells (BAEC) (bovine)
T1 sequence: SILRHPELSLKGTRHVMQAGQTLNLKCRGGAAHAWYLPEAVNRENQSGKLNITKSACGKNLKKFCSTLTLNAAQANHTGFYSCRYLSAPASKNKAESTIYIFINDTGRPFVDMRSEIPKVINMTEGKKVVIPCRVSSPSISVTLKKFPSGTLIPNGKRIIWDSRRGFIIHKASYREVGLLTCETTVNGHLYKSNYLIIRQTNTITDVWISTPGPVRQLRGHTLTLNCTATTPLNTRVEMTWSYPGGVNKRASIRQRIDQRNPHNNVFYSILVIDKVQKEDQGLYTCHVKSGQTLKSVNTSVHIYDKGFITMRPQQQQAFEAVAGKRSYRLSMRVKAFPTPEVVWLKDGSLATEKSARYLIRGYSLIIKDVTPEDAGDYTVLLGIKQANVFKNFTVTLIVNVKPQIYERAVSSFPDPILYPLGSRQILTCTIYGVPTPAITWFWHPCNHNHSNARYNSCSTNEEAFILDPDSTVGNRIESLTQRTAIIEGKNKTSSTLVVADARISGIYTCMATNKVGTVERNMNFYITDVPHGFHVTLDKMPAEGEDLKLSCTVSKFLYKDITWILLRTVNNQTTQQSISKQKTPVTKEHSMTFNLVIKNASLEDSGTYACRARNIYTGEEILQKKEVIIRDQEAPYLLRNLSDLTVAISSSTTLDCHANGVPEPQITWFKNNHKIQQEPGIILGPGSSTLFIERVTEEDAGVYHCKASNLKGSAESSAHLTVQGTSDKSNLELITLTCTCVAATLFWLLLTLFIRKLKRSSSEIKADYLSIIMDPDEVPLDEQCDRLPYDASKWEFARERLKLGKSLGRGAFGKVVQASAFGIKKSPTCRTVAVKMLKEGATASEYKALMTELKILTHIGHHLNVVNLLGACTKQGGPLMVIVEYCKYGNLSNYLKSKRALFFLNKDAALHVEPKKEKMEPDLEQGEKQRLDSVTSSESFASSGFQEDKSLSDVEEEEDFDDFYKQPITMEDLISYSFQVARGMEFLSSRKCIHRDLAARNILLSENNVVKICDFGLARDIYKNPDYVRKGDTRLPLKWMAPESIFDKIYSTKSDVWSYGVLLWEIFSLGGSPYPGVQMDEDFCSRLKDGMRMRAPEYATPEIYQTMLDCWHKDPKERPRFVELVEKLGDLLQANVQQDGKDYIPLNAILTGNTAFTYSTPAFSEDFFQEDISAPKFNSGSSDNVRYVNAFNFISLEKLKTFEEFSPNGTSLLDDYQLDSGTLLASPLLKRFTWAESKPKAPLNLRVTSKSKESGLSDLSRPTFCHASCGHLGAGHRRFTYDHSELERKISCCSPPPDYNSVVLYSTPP

[2] = target: bovine Flk-1 (VEGFR-2), endogenous on bovine aortic endothelial cells (BAEC) (bovine)
[3] = target: T1, bovine Flt-1 (VEGFR-1), endogenous on bovine aortic endothelial cells (BAEC) (bovine); remark: listed apart in the source

Flt-1 phosphorylation in BAEC stimulated with VEGF (10^-9 M), anti-phosphotyrosine Western blot of immunoprecipitated receptor (fold over PBS-treated cells) [1]: 1.5
BAEC migration (modified Boyden chamber, 5 h), VEGF 2.5x10^-10 M (% increase over PBS-stimulated cells) [2]: 83
BAEC migration (modified Boyden chamber, 5 h), VEGF 10^-9 M (% increase over PBS-stimulated cells) [2]: 130
BAEC migration (modified Boyden chamber, 5 h), VEGF 10^-10 M (% increase over PBS-stimulated cells) [2]: 46
BAEC proliferation (cell count at 72 h), VEGF 2.5x10^-10 M (% increase over DMEM/1% FBS) [2]: 219
BAEC proliferation (cell count at 72 h), VEGF 10^-10 M (% increase over DMEM/1% FBS) [2]: 183
BAEC proliferation (cell count at 72 h), VEGF 10^-11 M (% increase over DMEM/1% FBS) [2]: 62
Flk-1 phosphorylation in BAEC stimulated with VEGF (10^-9 M), anti-phosphotyrosine Western blot of immunoprecipitated receptor (fold over PBS-treated cells) [2]: 13.2
PAF synthesis by BAEC (3H-acetate incorporation, 15 min), VEGF 10^-8 M (fold over PBS-treated cells) [2]: 35.9
PAF synthesis by BAEC (3H-acetate incorporation, 15 min), VEGF 10^-9 M (fold over PBS-treated cells) [2]: 20.4
PAF synthesis by BAEC (3H-acetate incorporation, 15 min), VEGF 10^-10 M (fold over PBS-treated cells) [2]: 7.2
Molecule: human recombinant vascular growth factor, VEGF165 (PeproTech Inc.) (from UniProt P15692 27-191) (ligand)

PAF synthesis by BAEC (3H-acetate incorporation, 15 min), PlGF 10^-8 M (% increase over PBS-treated cells) [3]: 67
B1: human placenta growth factor, PlGF152 (R & D Systems) (ligand, UniProt P49763-3 19-170, looked up)
chain: LPAVPPQQWALSAGNGSSEVEVVPFQEVWGRSYCRALERLVDVVSEYPSEVEHMFSPSCVSLLRCTGCCGDENLHCVPVETANVTMQLLKIRSGDRPSYVELTFSQHVRCECRPLREKMKPERRRPKGRGKRRREKQRPTDCHLCGDAVPRR
